The record followed here is patent US20200207858A1 (ADICET BIO, published 2020).

Assay [1] deals with T1, Single-chain HLA-A2 (scHLA-A2)/TyrD 369-377 peptide complex.
T1 construct: Used as the soluble analyte in SPR; not shown: flexible linker
The assay is described as follows: SPR (ProteOn), IgG captured by immobilized anti-mouse antibody, scHLA-A2/TyrD complex as analyte at 16-250 nM, apparent affinity.

Assay [2] deals with T1, Single-chain HLA-A2 (scHLA-A2)/TyrD …. Put plainly: SPR (ProteOn), IgG captured by immobilized anti-mouse antibody, scHLA-A2/TyrD 369-377 as analyte (250-16 nM), Langmuir kinetic fit, column KD.
Description: (§1) Briefly, six channels of ProteOn GLM sensor chip (BioRad laboratories) were activated with 50 μl of a mixture of 0.04 M N-ethyl-N′-(3-dimethylaminopropyl) carbodiimide (EDC) and 0.01 M sulfo-N-hydroxysuccinimide (Sulfo-NHS) at a flow rate of 30 μl/min. The anti-mouse or anti-human polyclonal antibodies (Jackson ImmunoResearch) were diluted in 10 mM sodium acetate buffer pH 4.5 to a final concentration of 25 μg/ml and 150 μl were injected followed by an injection of 150 μl of 1 M ethanolamine-HCl pH 8.5. The IgG TCRL antibodies were injected in the vertical orientation with a flow rate of 30 μl/min. […] Running buffer (PBST) was injected simultaneously in the sixth channel for double referencing to correct for loss of the captured antibodies from the chip sensor surface during the experiment. All binding sensorgrams were collected, processed and analyzed using the integrated ProteOn Manager (Bio-Rad Laboratories, Hercules, USA) software. Binding curves were fitted using the Langmuir model describing 1:1 binding stoichiometry, or with the Langmuir and mass transfer limitation model.
The target is the same in assay [3]. The assay is described as follows: SPR (ProteOn), IgG captured by immobilized anti-human antibody, scHLA-A2/TyrD complex as analyte at 16-250 nM, apparent affinity.
Description: as §1
The target is the same in assay [4]. Put plainly: SPR (ProteOn), IgG captured by immobilized anti-human antibody, scHLA-A2/TyrD 369-377 as analyte (250-16 nM), Langmuir kinetic fit, column KD.
Description: as §1

B1: D11 TCRL antibody (murine parental monoclonal antibody) (antibody, mouse IgG1, kappa, V domains shown)
VH: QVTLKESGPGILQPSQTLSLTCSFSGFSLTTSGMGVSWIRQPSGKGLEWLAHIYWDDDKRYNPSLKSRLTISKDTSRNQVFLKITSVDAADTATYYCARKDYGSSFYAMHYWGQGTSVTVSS
VL: DIQMTQSPSSLSASLGGKVTITCKASQDIHNYIAWYQHKPVKGPRLLIHYTSTLQPGTPSRFSGSGSGRDYSFSISNLEPEDIATYYCLQYDNLWTFGGGTKLEIKR
notes: Mouse IgG1 isotype, recombinant from Expi293 cells; The antibody was biotinylated for flow cytometry; also called mouse parental D11
With B1, the figures for the Kd in assay [1] and in assay [2] were 4.6 nM and 3.98 nM, respectively.

B2: hD11-5 TCRL antibody (humanized D11) (antibody, human IgG1, kappa, V domains shown)
VH: QITLKESGPTLVKPTQTLTLTCTFSGFSLSTSGMGVSWIRQPPGKALEWLAHIYWDDDKRYNPSLKSRLTITKDTSKNQVVLTMTNMDPVDTATYYCARKDYGSSFYAMHYWGQGTLVTVSS
VL: DIQMTQSPSSLSASVGDRVTITCKASQDIHNYIAWYQQKPGKAPKLLIHYTSTLQPGVPSRFSGSGSGTDFTFTISSLQPEDIATYYCLQYDNLWTFGQGTKVEIKR
notes: The antibody was biotinylated for flow cytometry; also called dH11-5
With B2, the Kd was found to be 3.9 nM in assay [3] and 4.61 nM in assay [4].
